In patent US20190085030A1:
Non-standard residues stand in square brackets, D forms with d. No end group written: not given here.

biological target: A-beta1-42 (UniProt P05067); assay: iodixanol density gradient centrifugation of A-beta1-42 with FITC-labelled peptide; dye in fraction 12
Sequence (P05067 672-713 limits assumed): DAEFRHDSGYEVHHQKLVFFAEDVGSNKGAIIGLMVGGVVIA

Binder	Peptide bound in fraction 12 [%]
[dR][dP][dR][dT][dR][dL][dR][dN][dR] (also: FITC label, site not given here) [D3Δhth (D3 with deletion hth) (SEQ ID NO: 1)]	2
[dR][dP][dR][dT][dR][dL] [NT-D3 (D3-N-Terminus) (SEQ ID NO: 6)]	0
[dR][dP][dR][dT][dR][dL][dH][dT][dH][dR][dN][dR] (also: FITC label, site not given here) [D3 (SEQ ID NO: 11)]	4

Now from value to binder:

Peptide bound in fraction 12 [%]	Binder
20	[dP][dT][dL][dH][dT][dH][dN][dR][dR][dR][dR][dR] (also: FITC label, site not given here) [RD2 (rational D3) (SEQ ID NO: 2)]
4	[dR][dR][dP][dT][dL][dR][dH][dT][dH][dN][dR][dR] (also: FITC label, site not given here) [RD3 (rational D3) (SEQ ID NO: 4)]
